Laboratory results reported in article PMC3538848.

How the values were obtained:
[1] = target: A/Solomon Islands/3/2006 (H1N1) hemagglutinin ectodomain (influenza A virus A/Solomon Islands/3/2006 (H1N1)); test: negative-stain EM, single-particle 3D reconstruction
[2] = target: A/Perth/16/2009 (H3N2) hemagglutinin ectodomain (influenza A virus A/Perth/16/2009 (H3N2)); test: as above
[3] = target: A/Brisbane/10/2007 (H3N2) hemagglutinin ectodomain (influenza A virus A/Brisbane/10/2007 (H3N2)); test: BLI
[4] = target: A/Panama/2007/1999 (H3N2) hemagglutinin ectodomain (influenza A virus A/Panama/2007/1999 (H3N2)); test: BLI
[5] = target: A/Perth/16/2009 (H3N2) hemagglutinin ectodomain (influenza A virus A/Perth/16/2009 (H3N2)); test: BLI
[6] = target: A/Brisbane/10/2007 (H3N2) hemagglutinin ectodomain (influenza A virus A/Brisbane/10/2007 (H3N2)); test: ITC
[7] = target: A/Panama/2007/1999 (H3N2) hemagglutinin ectodomain (influenza A virus A/Panama/2007/1999 (H3N2)); test: ITC
[8] = target: A/Perth/16/2009 (H3N2) hemagglutinin ectodomain (influenza A virus A/Perth/16/2009 (H3N2)); test: ITC
[9] = target: A/Texas/36/1991 (H1N1) hemagglutinin ectodomain (influenza A virus A/Texas/36/1991 (H1N1))

What does the source list for C05 Fab (Lys-C digestion of IgG)?
stoichiometry N [1]: 3; stoichiometry N [2]: 3

For “C05 Fab (recombinant, for binding studies)”, which Kd [3] is on record?
Its Kd is over 5000 nM.

And the Kd [4]?
The Kd was 720 nM.

What about the Kd [5] of the same substance?
Its Kd is 18 nM.

What about the Kd [6] of the same substance?
The Kd was 10000 nM.

What about the Kd [7] of the same substance?
The Kd was 225 nM.

What about the Kd [8] of the same substance?
The Kd was 26 nM.

For C05 IgG (antibody), which MIC, hemagglutination inhibition (HAI) [9] is on record?
The MIC, hemagglutination inhibition (HAI) was over 100 µg/mL.
